In publication doi:10.1101/2020.01.26.920348:

Legend:
Assay in all cases: FRET or BRET
[1] = molecular target: YFP-preIQ3-IQD-PCRDC (not stated (human or rat cDNA cloned) | human)
[2] = molecular target: YFP-preIQ3-IQD-PCRDS (not stated (human or rat cDNA cloned) | mouse)
[3] = molecular target: YFP-preIQ3-IQD-PCRDD (not stated (human or rat cDNA cloned)) (UniProt Q01668)
Sequence of UniProt Q01668 (Q01668 whole entry): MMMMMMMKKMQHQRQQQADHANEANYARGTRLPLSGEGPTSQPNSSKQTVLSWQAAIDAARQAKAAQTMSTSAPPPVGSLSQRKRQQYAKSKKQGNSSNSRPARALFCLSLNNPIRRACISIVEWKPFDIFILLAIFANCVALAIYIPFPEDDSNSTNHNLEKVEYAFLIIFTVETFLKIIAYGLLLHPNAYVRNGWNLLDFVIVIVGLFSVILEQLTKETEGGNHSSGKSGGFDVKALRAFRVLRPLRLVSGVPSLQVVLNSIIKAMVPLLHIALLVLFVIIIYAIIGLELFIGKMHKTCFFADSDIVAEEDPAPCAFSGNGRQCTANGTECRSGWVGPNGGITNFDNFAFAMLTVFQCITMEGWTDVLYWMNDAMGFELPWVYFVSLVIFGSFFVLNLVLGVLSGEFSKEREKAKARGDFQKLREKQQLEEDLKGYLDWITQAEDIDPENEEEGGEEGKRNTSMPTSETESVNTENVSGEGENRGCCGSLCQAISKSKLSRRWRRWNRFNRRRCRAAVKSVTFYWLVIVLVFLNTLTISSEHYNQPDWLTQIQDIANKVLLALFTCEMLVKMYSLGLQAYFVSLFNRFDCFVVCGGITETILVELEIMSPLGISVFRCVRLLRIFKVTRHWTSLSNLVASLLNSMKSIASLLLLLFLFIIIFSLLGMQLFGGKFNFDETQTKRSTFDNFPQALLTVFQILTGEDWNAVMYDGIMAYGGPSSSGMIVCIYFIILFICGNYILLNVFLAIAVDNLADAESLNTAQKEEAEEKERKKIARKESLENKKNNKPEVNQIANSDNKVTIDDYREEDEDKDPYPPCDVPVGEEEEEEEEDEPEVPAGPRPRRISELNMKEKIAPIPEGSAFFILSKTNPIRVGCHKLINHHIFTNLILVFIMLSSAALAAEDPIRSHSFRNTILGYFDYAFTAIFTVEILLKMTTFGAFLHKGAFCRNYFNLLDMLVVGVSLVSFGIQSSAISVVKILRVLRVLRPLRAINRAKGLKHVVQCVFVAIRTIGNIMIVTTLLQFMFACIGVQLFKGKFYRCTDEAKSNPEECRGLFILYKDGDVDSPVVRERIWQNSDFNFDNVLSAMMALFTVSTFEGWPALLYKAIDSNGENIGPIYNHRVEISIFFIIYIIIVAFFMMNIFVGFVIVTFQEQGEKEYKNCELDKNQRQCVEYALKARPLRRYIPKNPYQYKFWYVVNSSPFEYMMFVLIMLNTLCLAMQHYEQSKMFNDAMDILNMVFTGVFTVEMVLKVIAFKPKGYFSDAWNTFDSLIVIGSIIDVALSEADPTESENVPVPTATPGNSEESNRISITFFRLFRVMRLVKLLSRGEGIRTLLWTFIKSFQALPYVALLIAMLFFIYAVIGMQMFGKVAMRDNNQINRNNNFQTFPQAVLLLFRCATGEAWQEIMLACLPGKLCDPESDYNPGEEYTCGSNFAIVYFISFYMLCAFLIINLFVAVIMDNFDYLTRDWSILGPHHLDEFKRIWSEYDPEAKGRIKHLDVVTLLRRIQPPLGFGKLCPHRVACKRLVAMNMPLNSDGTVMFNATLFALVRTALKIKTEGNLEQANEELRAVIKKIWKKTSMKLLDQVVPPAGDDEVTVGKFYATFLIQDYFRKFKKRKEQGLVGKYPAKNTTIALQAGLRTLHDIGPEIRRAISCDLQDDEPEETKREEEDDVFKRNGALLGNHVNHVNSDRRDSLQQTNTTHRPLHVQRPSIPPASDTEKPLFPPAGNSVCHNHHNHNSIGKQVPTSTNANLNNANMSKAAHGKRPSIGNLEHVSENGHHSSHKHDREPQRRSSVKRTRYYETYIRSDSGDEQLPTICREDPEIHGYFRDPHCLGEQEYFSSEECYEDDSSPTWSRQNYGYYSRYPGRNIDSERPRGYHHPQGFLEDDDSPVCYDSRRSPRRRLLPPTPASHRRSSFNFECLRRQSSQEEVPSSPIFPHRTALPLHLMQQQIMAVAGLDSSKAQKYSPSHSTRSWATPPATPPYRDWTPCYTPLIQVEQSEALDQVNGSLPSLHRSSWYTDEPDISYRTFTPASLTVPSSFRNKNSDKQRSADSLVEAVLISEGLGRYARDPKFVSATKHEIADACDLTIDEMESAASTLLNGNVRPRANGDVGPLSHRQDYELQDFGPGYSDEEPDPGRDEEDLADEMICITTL

**Q.** “CFP-DCRDC (distal C-terminal regulatory domain of CaV1.2) (from UniProt Q13936 1-2221) (domain or fragment)” was tested. Which relative Kd (normalised to Kd of PD/DF) [1] did it give?
**A.** 11.2

**Q.** For “CFP-DCRDS (distal C-terminal regulatory domain of CaV1.1) (from UniProt Q02789 1-1852) (domain or fragment)”, which relative Kd (normalised to Kd of PD/DF) [2] is on record?
**A.** 18.7

**Q.** Which relative Kd (normalised to Kd of PD/DF) [3] does the source give for “PCRDC-DCRDF peptide (PCRD of CaV1.2 joined to DCRD of CaV1.4)” here?
**A.** 2.3
